The supplement of paper PMC9732359
± gives the uncertainty stated by the source.

Assay: protein stability index of a GFP-peptide fusion (yeast GPS) (PSI 1-4); higher = more stable; sorted into four equal gates, so the index is relative within each strain
Conditions: doa10∆
Procedure, shortened: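 For each peptide, the protein stability index sums the read frequency in every gate after multiplying it by the gate number. Read frequencies came from plasmids that were PCR-amplified from each gate and Illumina-sequenced, with reads assigned to strains by barcodes. The gates were four equal bins of GFP/Cherry fluorescence ratio applied to mid-log yeast in leucine-free medium carrying a pooled library of tiled 17-residue yeast protein peptides fused downstream of GFP on a Cherry-expressing plasmid.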

| Sequence | protein stability index |
| --- | --- |
| RTKFVRSLVREIAGLSP [RPL36A] | 2.59 ± 0.19 |
| RTLNIQPEVAVKAAINF [YIL149C/MLP2] | 2.19 ± 0.054 |
| RTQFGGGKSVGFGLVYN [RPS24A] | 2.96 ± 0.065 |
| RVAKGSGTSVFEVEMIL [SRP54] | 3.28 ± 0.071 |
| RVIIQELRFPSPTPIQR [PRP28] | 2.57 ± 0.15 |
| RVLETTLVEFETIKMKE [BRN1] | 2.12 ± 0.22 |
| RVVMMKYDRKVPSPTGE [RPO21] | 2.69 ± 0.11 |
| RVVVPQALRVLRLKPGR [RPL16B] | 1.24 ± 0.087 |
| RWDKEEYQSLMSLKDKL [SMC1] | 3.29 ± 0.076 |
| RWYQLIATGCKDGRIRI [YGL100W/SEH1] | 2.31 ± 0.065 |
| RYFFYLSKINAIQLDYS [RPN3] | 1.31 ± 0.057 |
| SAEYLQMSLEANVVDIT [YJR042W/NUP85] | 1.8 ± 0.064 |
| SAGDDGKVRLWKATYSN [YGL100W/SEH1] | 2.74 ± 0.061 |
| SAGKGISSSAIPYSRNA [RPS13] | 2.61 ± 0.037 |
| SAGQPNLLLSASRDKTL [ASC1] | 2.4 ± 0.063 |
| SAIVNEDGLLEGLDELP [SOH1] | 2.95 ± 0.14 |
| SAKAELEKLVDHHPEGL [PRE10] | 2.84 ± 0.065 |
| SAKEIAKASGCDDESGD [MCD1] | 2.19 ± 0.094 |
| SAKPSQIPTVSSPLGFE [SIR4] | 3.14 ± 0.064 |
| SARGSYLRVSFKNTRET [RPL17A] | 3.1 ± 0.048 |
| SASDALKGRVVEVCLAD [RPS1A] | 2.46 ± 0.06 |
| SASHFEQYTKKINSWDQ [YJL041W/NSP1] | 2.8 ± 0.076 |
| SASKHEYSDNFPVSLSQ [SIR4] | 3 ± 0.045 |
| SASSKEFNFTNLQAKPL [YAR002W/NUP60] | 2.43 ± 0.072 |
| SAVKRLLHVAVSDSNDD [RPN2] | 2.39 ± 0.11 |

| Sequence | protein stability index |
| --- | --- |
| SCKDSQLKWAQNTIDDT [YIL149C/MLP2] | 2.15 ± 0.042 |
| SCTFWSDKESNAYGFIE [YJL039C/NUP192] | 2.9 ± 0.079 |
| SDAQSNLGSNVRNSFPL [REC8] | 3.01 ± 0.07 |
| SDESIERLMTWKFKSLI [RRI2] | 2.26 ± 0.048 |
| SDEVSRGIPRLSEDELR [SMC4] | 3.43 ± 0.14 |
| SDIISMLQISDDNEMTR [RRI2] | 3.05 ± 0.096 |
| SDIVFIHQNAGRLLRAM [BRR2] | 1.73 ± 0.054 |
| SDLGTVVFDSNEAPPKT [YMR153W/NUP53] | 3.17 ± 0.057 |
| SDNVSFEIQGVPPMKLA [YMR129W/POM152] | 2.8 ± 0.11 |
| SDSEDSDAKEQHQSLSR [ESC2] | 2.81 ± 0.14 |
| SDTSKPAFTFGAQKDNE [YJL041W/NSP1] | 3.32 ± 0.094 |
| SEENIGSGLLKLSEIIL [SWI1] | 3.2 ± 0.074 |
| SEHDKKRLSAALSKFLT [YML103C/NUP188] | 2.99 ± 0.09 |
| SEIARTYLLKNDLVKAR [RPN9] | 3.29 ± 0.2 |
| SEIKQQINKAQILENYN [YJL039C/NUP192] | 2.94 ± 0.089 |
| SEKLITKYFEPTSTENN [ECM29] | 2.87 ± 0.076 |
| SELDSNDFFIIYYTPAF [YJL039C/NUP192] | 1.39 ± 0.065 |
| SELNEGNLSKREIQIDA [SRB8] | 2.69 ± 0.062 |
| SENRFPGWDFETEEIDP [RPL5] | 2.77 ± 0.14 |
| SENVFEGLTYKYPARRI [SSN3] | 3.18 ± 0.11 |
| SEPLTLKVLSEHLDCMN [PCI8] | 1.91 ± 0.064 |
| SETDLNDIPLGSGQPDN [SRB8] | 3.09 ± 0.11 |
| SFAIYSSTIDAPAFHTS [SRB8] | 2.21 ± 0.055 |
| SFDSIDHSWFLLIGCKL [CSI1] | 1.71 ± 0.1 |
| SFGTANTNGTNASANST [YOR098C/NUP1] | 3.04 ± 0.11 |

| Sequence | protein stability index |
| --- | --- |
| SFHVQKKTCSSCGYPSA [RPL37B] | 1.86 ± 0.08 |
| SFIISSLDTLELESITE [NUT1] | 1.74 ± 0.075 |
| SFLKVDPDLGLDLMFDE [YJL039C/NUP192] | 3.3 ± 0.083 |
| SFSVCKIRCFRYISTLT [IRR1] | 1.61 ± 0.057 |
| SGCDSTKPSLRKASCIW [ECM29] | 2.86 ± 0.082 |
| SGDNHTQQSHEQQPEQP [RPT4] | 2.96 ± 0.052 |
| SGEDVIIGKTTPISPDE [RPB2] | 3.26 ± 0.21 |
| SGGSVNLYHVTEDGWIY [PRE2] | 2.85 ± 0.12 |
| SGITGECLQAYIFFGPI [RET1] | 2.6 ± 0.059 |
| SGLPTCDYYNTFLLNNK [RPN2] | 2.94 ± 0.069 |
| SGNSANNMNVNMNLNPQ [GAL11] | 2.85 ± 0.046 |
| SGQKAGLIAARRTGLLR [RPL2A] | 3.07 ± 0.19 |
| SGRTVISPDPNLSIDEV [RPO31] | 2.4 ± 0.063 |
| SGTFYRYNAKAIGSGSE [PUP2] | 3.15 ± 0.088 |
| SGTKSEVLTYVNYLISN [YJL039C/NUP192] | 2.52 ± 0.053 |
| SGYNQEDSMIMNQSSID [RPB2] | 2.46 ± 0.11 |
| SHERFFLSQGLHVVITL [CSN12] | 2.89 ± 0.099 |
| SHINTNVGDNNSTASSS [ARP7] | 2.68 ± 0.095 |
| SHLFNEYSYVDSNMDSI [RPN4] | 3.26 ± 0.1 |
| SHNVDELLEHIETIGHL [RPN5] | 2.51 ± 0.084 |
| SIAAERYDYSDEVGRRS [YCG1] | 3 ± 0.075 |
| SIATKRFDAQTGSDREV [RPT3] | 3.28 ± 0.13 |
| SIISSKTSCVVEKRIGK [RGR1] | 2.46 ± 0.089 |
| SIKEHSTTMDGANDLGF [MED1] | 2.53 ± 0.14 |
| SIVLLLLSQFGIKVLPE [YML103C/NUP188] | 1.8 ± 0.096 |

| Sequence | protein stability index |
| --- | --- |
| SIVTVVSSAKFSGKYLK [RPL22B] | 2.8 ± 0.1 |
| SKALYPDYYMIIKYPVA [SNF2] | 2.37 ± 0.039 |
| SKEVRGSKIRVMWGKVT [RPL33A] | 2.68 ± 0.1 |
| SKFSKQQAKGAFQKVAA [RPL24A] | 2.21 ± 0.065 |
| SKINSTELLDYATKLSK [MED4] | 2.79 ± 0.23 |
| SKLIPEVINKEIENATK [RPS1A] | 2.86 ± 0.22 |
| SKLKKETASFIPTKESL [YIL149C/MLP2] | 2.74 ± 0.072 |
| SKLLREHGYQSRGFEVM [RPB2] | 3.14 ± 0.13 |
| SKLPDPERWLPLRDRST [SRP72] | 2.09 ± 0.067 |
| SKMYNTDKKAFLGALKY [PRP8] | 2.52 ± 0.092 |
| SKNSKLSIICVGGHNVT [SIR3] | 1.71 ± 0.069 |
| SKQNGIEQSITKNIPIT [SSN8] | 2.63 ± 0.082 |
| SKQVQVSQQPLSRGYTC [ECM29] | 2.83 ± 0.074 |
| SKSMKFSRRFDCRDVYC [CSN9] | 2.7 ± 0.07 |
| SKTVKVLKTLIEKFEQV [RPN6] | 2.27 ± 0.2 |
| SKTVVTLSEPVQGELKP [FAS1] | 2.56 ± 0.05 |
| SKVSIEQRKEAAEFVLA [RPN7] | 2.12 ± 0.13 |
| SKWFNLEKIHSIEVQSL [SWI3] | 2.67 ± 0.24 |
| SLAGFHKVQTKLTRELE [RPS7A] | 2.4 ± 0.065 |
| SLAILGMNLLSNLSQNV [SWI1] | 2.44 ± 0.055 |
| SLAQNDCNSALDQLLVL [RPN5] | 2.15 ± 0.048 |
| SLAWSADGQTLFAGYTD [ASC1] | 2.66 ± 0.08 |
| SLDIRHDFIKGLIMLNL [NUT1] | 2.18 ± 0.064 |
| SLEENAMSTVTLGVVGK [SKI6] | 3.22 ± 0.16 |
| SLFSKIKTFFTQKDSAR [YAR002W/NUP60] | 2.21 ± 0.091 |
